Reference: the nanobody polyreactivity screen of Harvey et al. (2022)

Assay: yeast display, Sf9 membrane polyspecificity reagent, FACS + sequencing; frameworks hold sequencing errors
Outline: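 Galactose induction of a Saccharomyces cerevisiae BJ5465 synthetic nanobody display library ran 36–48 hours. The cells were then stained for 1 hour at 4 °C with 10% biotinylated, detergent-solubilized Sf9 membrane reagent, pulled down on streptavidin microbeads and FACS-sorted into low and high (top ~1%) gates on expression and reagent-binding fluorescence. Labels for polyreactivity follow the gate of origin.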

Row | Sequence | polyreactivity (PSR sort gate)
1 | QVQLVESGGGLVQAGGSLRLSCAASGITVFENAMGWYRQAPGKERELVAAISYSGGSTYYADSVKGRFTISRDNAKNTVYLQMNSLKPEDTAVYYCAADWYYFLYIRNRWGYGYWGQGTQVTVSS | high polyreactivity
2 | QVQLVESGGGLVQAGGSLRLSCAASGITVGYYAMGWYRLAPGKERELVAAITRGGGSTYYADSVKGRFTISRDNAKYTVYVQKNSLKPEDTAVYYCAAKTSGPGAGHDYWGQGTQVTVSS | high polyreactivity
3 | QVQLVESGGGLVQAGGSLRLSCAASGITYWKYAMGWYRQAPGKERELVAAISKSGGSTYYADSVKGRFTISRDNAKNTVYLQMNSLKPEDTAVYYCAAVPGPASKYGYWGQGTQVTVSS | high polyreactivity
4 | QVQLVESGGGLVQAGGSLRLSCAASGKTFRYNAMGWYRQAPGKERELVAAISRRGGSTYYADSVKGRFTISRDNAKNTVYLQMNSLKPEDTAVYYCNAGRTAENEYWGQGTQVTVSS | high polyreactivity
5 | QVQLVESGGGLVQAGGSLRLSCAASGLIFAGYTMGWYRQAPGKERELVAAISISGGSTYYADSVKGRFTISRDNAKNTVYLQMNSLKPEDTAVYYCASKRRSWPPTYYYWGQGTQVTVSS | high polyreactivity
6 | QVQLVESGGGLVQAGGSLRLSCAASGLIFAIYAMGWYRQAPGNERELVAAIRWSGASTYADSVKGRFTISRDNAKNTVYLQMNSLKPEDTAVYYCAADDLLDYDYWGQGTQVTVSS | low polyreactivity
7 | QVQLVESGGGLVQAGGSLRLSCAASGLIFARNAMGWYRQAPGKERELVAAITYSGSRTYYADSVKGRFTISRDNAKNTVYLQMNSLKPEDTAVYYCAARHRYSAVTEYNYWGQGTQVTVSS | high polyreactivity
8 | QVQLVESGGGLVQAGGSLRLSCAASGLIFATYAMRWYRQAPGKERELVADITTTGSTYYADSVKGRFTISRDNAKNTVYLQMNSLKPEDTAVYYCAAYGRWLTWYDFDYWGQGTQVTVSS | high polyreactivity
9 | QVQLVESGGGLVQAGGSLRLSCAASGLIFAYYAMGWYRQAPGKERELVAAISWSGDNTYYADSVKGRFTISRDNAKNTVYLEMNSLKPEDTAVYYCNVDTYGAWSWYYGLHHMDYWGQGTQVTVSS | low polyreactivity
10 | QVQLVESGGGLVQAGGSLRLSCAASGLIFAYYTMGWYRQAPGKERELVAAITSGVRTYYADSVKGRFTISRDNAKNTVYLQMNSLKPEDTAVYYCAAGLSGSTQATIFWGYYYWGQGTQVTVSS | low polyreactivity
11 | QVQLVESGGGLVQAGGSLRLSCAASGLIFDTYAMGWYRQAPGKEREWVADITWSGGSTYYADSVKGRFTISRDNAKNTVYLQMNSLKPEETAVYYCAADSVSLFYWDQRYPDEYDYWGQGTQVTVSS | low polyreactivity
12 | QVQLVESGGGLVQAGGSLRLSCAASGLIFDYYAMGWYRQAPGKERELVAAISANTGRTYYADSVKGRFTISRDNAKNTVYLQMNSLKPEDTAVYYCAAYTQYDGAEFDYWGHGTQVTVSS | high polyreactivity
13 | QVQLVESGGGLVQAGGSLRLSCAASGLIFENNAMGWYRQAPGKERELVAAITKGGGSTYYADSVKGRFTISRDNAKNTVYLQMNSLKPVDTAVYYCAKDHPWHRYWQYWYDYWGLGTQVTVSS | low polyreactivity
14 | QVQLVESGGGLVQAGGSLRLSCAASGLIFENNAMGWYRQAPGKERELVAAITYSGGSTYYADSVKGRFTISRDNAKNTVYLQMNSLKPEDTAVYYCAAESYRRYGYDYWGQGTQVTVSS | high polyreactivity
15 | QVQLVESGGGLVQAGGSLRLSCAASGLIFFWYTMGWYRKAPGKERELVAAIDSGGSTYYADSVKGRFTISRDNAKNTVYLQMNSLKPEDTAVYYCNADPGWGIYDDYWVQGTQVTVSS | high polyreactivity
16 | QVQLVESGGGLVQAGGSLRLSCAASGLIFFWYTMGWYRQAPGKERELVAAISGSGTGTYYADSVKGRFTISRDNAKNTVYLQMNSLIPEDTAVYYCATDYVYRGYLMNYWGQGTQVTVSS | high polyreactivity
17 | QVQLVESGGGLVQAGGSLRLSCAASGLIFFYLNDMGWYRQAPGKERELVATITSGTSTTYADSVKGRFTISRDNAKNTVYLQMNSLKPEDTAVYYCNATDVGIITVGYGHGGYYWGQGTQVTVSS | low polyreactivity
18 | QVQLVESGGGLVQAGGSLRLSCAASGLIFGDYVMGWYRQAPGKERELVAAISNNGDSTYYADSVKGRFTISRDNAKNTVYLQMNSLIPEDTAVYYCNADGDRGGYVLTEHDSWGQGTQVTVSS | low polyreactivity
19 | QVQLVESGGGLVQAGGSLRLSCAASGLIFGGTAMGWYRQAPGKERELVAAITYRTGSTYYADSVKGRFTISRDNAKNTVYLQMNSLKPEDTAVYYCAAAVSLGYPVAFYYWGQGTQVTVSS | low polyreactivity
20 | QVQLVESGGGLVQAGGSLRLSCAASGLIFGKYAMGWYRQAPGKERELVAAITSSGGGTYYADSVKGRFTISRDNAKNTVYLQMNSLKPEDTAVYYCATGPDPKYDYWGQGTQVTVSS | high polyreactivity
21 | QVQLVESGGGLVQAGGSLRLSCAASGLIFGNYAMGWYRQAPGKERELVAAITSTGITYYADSVKGRFTISRDNAKNTVYLQMNSLKPEDTAVYYCNADYYRHSLDYDYVGYDYWGQGTQVTVSS | low polyreactivity
22 | QVQLVESGGGLVQAGGSLRLSCAASGLIFGRNARGWYRQAPGKERELVAVISKRGGSTYYADSVKGRFTISRDNAKNTVYLQMNSLKPADTAVYYCAADYGSTGNYWGQGTQVTVSS | high polyreactivity

Row | Sequence | polyreactivity (PSR sort gate)
23 | QVQLVESGGGLVQAGGSLRLSCAASGLIFGRYAMGWYRQAPGKERELVAGISGSGGITYYADSVKGRFTISRDTAKNTVYLQMHILKPEDTAVYYCATAAASHKYGYWGQGTQVTVSS | low polyreactivity
24 | QVQLVESGGGLVQAGGSLRLSCAASGLIFGRYTMGWYRQAPGKEREFVAAISRSGGSTYYADSVKGRFTISRDNAKITVYLQRNSLKPEDTAVYYCAARGSYTRPKRYGYWGQGTQVTVSS | high polyreactivity
25 | QVQLVESGGGLVQAGGSLRLSCAASGLIFGVNAMGWYRQAPGKEMELVAAITSRGGSTYYADSVKGRFTISRDNAKNTVYLQMNSLKPEDTAVYYCAAKYAYYEPYSWRPQRTYNYWGQGTQVTVSS | high polyreactivity
26 | QVQLVESGGGLVQAGGSLRLSCAASGLIFGVNAMGWYRQAPGKEREFVARITRSGSSTYYADSVKGRFTISRDNAKNTVYLQMNSLKPEDTAVYYCAVDLFYKYDWGQGTQVTVSS | high polyreactivity
27 | QVQLVESGGGLVQAGGSLRLSCAASGLIFGVYAMGWYRQAPGKERELVAGISWRGSSTYYADSVKGRFTISRDNAKNTVYLQMNSLKPEDTAVYYCAAVRRPSRHAYGGTAVYYWGQGTQVTVSS | high polyreactivity
28 | QVQLVESGGGLVQAGGSLRLSCAASGLIFGYNAMGWYRQAPGKERELVAAISRRGTSTYYADSVKGRFTISRDNAKNTVYLQMNSLKPEDTAVYYCATYGVNPPGVEEYNYWGQGTQVTVSS | high polyreactivity
29 | QVQLVESGGGLVQAGGSLRLSCAASGLIFGYNAMGWYRQAPGKERELVASINWSTGRTRYADSVKGRFTISRDNAKNTVYLQMNSLKPEDTAVYYCAARLYNPYPYEYWGQGTQVTVSS | high polyreactivity
30 | QVQLVESGGGLVQAGGSLRLSCAASGLIFIGYAKGWSRQAPGKERELVASIRGVGSTNYADSVKGRFTISRDNAKNTVYLQMHSLKPEDTAVYYCATSVDRALYTQTRGDYDYWGQGTQVTVSS | low polyreactivity
31 | QVQLVESGGGLVQAGGSLRLSCAASGLIFIRYAMGWYRQAPGKERELVAAISWPGGNTYYADSVKGRFTISRDNAKNTVYLQMNSLKPEDTAVYYCAAVGTWQHRSYGYWGQGTQVTVSS | high polyreactivity
32 | QVQLVESGGGLVQAGGSLRLSCAASGLIFISYAMGWYRQAPGKERELVAAITSTVGGTYYADSVKGRFTISRDNAKNTVYLQMNSLQPEDTAVYYCAKEVWTWGPYYYWGQGTQVTVSS | low polyreactivity
33 | QVQLVESGGGLVQAGGSLRLSCAASGLIFKYNVMGWYRQAPGKERELVAAITWGGTRTYYADSVKGRFTISRDNAKNTVYLQMNSLKPEDTAVYYCAVRSARIERNYWGQGTQVTVSS | low polyreactivity
34 | QVQLVESGGGLVQAGGSLRLSCAASGLIFLQYGLGWYRQAPGKERALVAAITTRGGRTYYADSVKGRFTISRDNANNTVYLQMNSLKPEDTAVYYCAADSEQDNLRYYRWVWYYYWGQGTQVTVSS | low polyreactivity
35 | QVQLVESGGGLVQAGGSLRLSCAASGLIFLQYVMGWYRQAPGKEREFVATITDDGDTTYYADSVKGRFTISRDNAKNTVYLQMNSLKPEDTAVYYCAARYVPVYYWDYPYDYWGQGTQVTVSS | low polyreactivity
36 | QVQLVESGGGLVQAGGSLRLSCAASGLIFNKYTMGWYRQAPGTERELVAAISKSGGSTYYADSVKGRFTISRDNAKNTVYLQMNSLKPEDTAVYYCNRVTHYIRFDYWGQGTQVTGSS | low polyreactivity
37 | QVQLVESGGGLVQAGGSLRLSCAASGLIFPCYDMGWYRQAPGKERELVAAISDSGANTYYADSVKGRFTISRDNAKNTVYFQMNSLKPEDTAVYYCAAESSWWYGTSFGRFDYWGQGTQVTVSS | low polyreactivity
38 | QVQLVESGGGLVQAGGSLRLSCAASGLIFPDYDMGWYIQAPGKERELVAAISIGGVSTYYADSVKGRFTISRDNAKNTVYLQMNSLKPEDTAVYYCAAYYSYVYYVGDSDDYWGQGTQVTVSS | low polyreactivity
39 | QVQLVESGGGLVQAGGSLRLSCAASGLIFPIYTMGWYRQAPGKERELVAAISSRGGSTYYADSVKGRFTISRDNAKNTVYLQMNSLKPEDTAVYYFGSYDYSGQGTQVTVSS | high polyreactivity
40 | QVQLVESGGGLVQAGGSLRLSCAASGLIFPQYAMGWYRQAPGKERELVAAISLSGTSTNYADSVKGRFTISRDNAKNTVYLQMNSLKPEDTAVYYCLADQRITQSVELEYDSWGQGSQVTVSS | low polyreactivity
41 | QVQLVESGGGLVQAGGSLRLSCAASGLIFPRYAMGWYRQAPGKERELVAAITRGGSTYYADSVKGRFTISRDNAKNTVYLQMNSLKPEDTAVYYCNAELPVHWSWYDYWGQGTQVTVSS | low polyreactivity
42 | QVQLVESGGGLVQAGGSLRLSCAASGLIFPRYAMGWYRQAPGKERELVAAITSRAGSTYYADSVKGRFTISRDNAKNTVYLQMNSLKPEDTAVYYCAAVSDGWDGDMYYWGQGTQVTVSS | low polyreactivity
43 | QVQLVESGGGLVQAGGSLRLSCAASGLIFPRYAMGWYRQAPGKERELVAAITSRAGSTYYADSVKGRFTISRDNAKNTVYLQMNSLKPEDTAVYYCAAVSDGWDGDMYYWGQVTQVTVSS | low polyreactivity
